The text below walks through data of US20120027773A1 (AVEO PHARMACEUTICALS, published 2012).

In test [1] the target is T1, human wild-type RON (cell surface) (human, UniProt Q04912 25-1400).
T1 construct: whole, on cells; also called Human RON; wt RON
The experiment in a line: FACS titration on PC3 cells, 4 C. As to the method:
Binding to cell surface human wild-type RON and the delta 160 RON variant by antibodies 29B06 and 07F01 was measured at 4° C., using Fluorescence Activated Cell Sorting (FACS). PC3 cells expressing the human wild-type RON, and HT29 cells expressing the delta 160 variant, were harvested using cell dissociation buffer (Invitrogen), washed twice with FACS buffer (PBS with 0.5% BSA), and treated for 10 minutes with Cyto Q Antibody diluent and FC receptor block (Innovex Biosciences, Richmond, Calif.). Purified antibodies were diluted in FACS buffer over a concentration range from 0.02 nM to 40 nM. Cells were incubated with 100 μl of antibody for one hour, washed with FACS buffer three times, and incubated for 45 minutes with goat anti-mouse PE-conjugated antibody (Jackson ImmunoResearch Laboratories, West Grove, Pa.). Cells were washed three times with FACS buffer, resuspended in 300 μl of FACS buffer, and analyzed using a Beckman Coulter Cytomics FC 500 FACS instrument.

Test [2] has as its target T2, recombinant human RON-ECD/mFc fusion protein (human, UniProt Q04912 25-957).
T2 construct: extracellular domain; also called rhRON ECD/mFc; rhRon ECD/mFc; not shown: THXmFC: Thrombin/His tag/Factor Xa-AJ mouse IgG-Fc
Description: SPR, Ab captured on anti-mouse IgG, 37 C, AVG. Here is the method:
The binding affinities and kinetics of binding of antibodies 07F01, 29B06, 17F06, 18H09, and 12B11 to recombinant human RON-ECD/mFc fusion protein (rhRON ECD/mFc) and recombinant human RON SEMA and PSI domains (rhRON SEMA+PSI) (R&D Systems, Inc., Minneapolis, Minn.) were measured by surface plasmon resonance, using a Biacore T100 instrument (GE Healthcare, Piscataway, N.J.).
Rabbit anti-mouse IgGs (GE Healthcare) were immobilized on carboxymethylated dextran CM4 sensor chips (GE Healthcare) by amine coupling, according to a standard protocol. Analyses were performed at 25° C. and 37° C., using PBS containing 0.05% surfactant P20 as running buffer. The antibodies were captured in individual flow cells at a flow rate of 10 μl/min. Injection time was varied for each antibody to yield an Rmax between 30 and 60 RU. 250 μg/mL mouse Fc were injected at 30 μl/min for 120 seconds to block non-specific binding of antibodies to Fc portion of the protein when needed. Buffer, rhRon ECD/mFc or rhRON SEMA+PSI diluted in running buffer was injected sequentially over a reference surface (no antibody captured) and the active surface (antibody to be tested) for 300 seconds at 60 μl/minute. The dissociation phase was monitored for up to 3600 seconds. The surface was then regenerated with two 60-second injections of 10 mM Glycine-HCl, pH 1.7, at a flow rate of 60 μl/min. The rhRON ECD/mFc or rhRON SEMA+PSI concentration range tested was 0.625 nM to 20 nM.
Kinetic parameters were determined using the kinetic function of the BIAevaluation software (GE Healthcare) with double reference subtraction. Kinetic parameters for each antibody, kₐ (association rate constant), kd (dissociation rate constant) and KD (equilibrium dissociation constant) were determined.

B1: 29B06 (antibody, mouse IgG1, kappa)
heavy: EVQLQESGPSLVKPSQTLSLTCSVTGDSITSGYWNWIRKFPGNKLEYMGYISYSGKTYYNPSLKSRISITRDTSKNHYYLQLISVTAEDTATYYCARSKYDYAMDYWGQGTSVTVSSAKTTPPSVYPLAPGSAAQTNSMVTLGCLVKGYFPEPVTVTWNSGSLSSGVHTFPAVLQSDLYTLSSSVTVPSSTWPSETVTCNVAHPASSTKVDKKIVPRDCGCKPCICTVPEVSSVFIFPPKPKDVLTITLTPKVTCVVVDISKDDPEVQFSWFVDDVEVHTAQTQPREEQFNSTFRSVSELPIMHQDWLNGKEFKCRVNSAAFPAPIEKTISKTKGRPKAPQVYTIPPPKEQMAKDKVSLTCMITDFFPEDITVEWQWNGQPAENYKNTQPIMDTDGSYFVYSKLNVQKSNWEAGNTFTCSVLHEGLHNHHTEKSLSHSPGK
light: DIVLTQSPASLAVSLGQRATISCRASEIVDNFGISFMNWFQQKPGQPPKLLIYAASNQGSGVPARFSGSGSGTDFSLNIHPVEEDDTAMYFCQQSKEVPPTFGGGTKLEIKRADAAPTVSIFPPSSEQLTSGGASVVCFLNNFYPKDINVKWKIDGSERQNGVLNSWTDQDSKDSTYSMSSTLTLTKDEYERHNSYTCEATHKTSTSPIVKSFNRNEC
notes: Murine hybridoma monoclonal, IgG1/kappa; also called mu29B06; antibody 29B06
As a reminder, the Kd is the equilibrium constant for the complex coming apart. As usually defined, the koff is the rate constant with which the complex falls apart. By kon is commonly meant a measure of how fast the partners come together. In test [1], B1 yielded a dissociation constant (Kd) of 0.133 nM. Also, in test [2], the Kd is 0.28 nM, the koff is 0.0007 s⁻¹ and the kon stood at 2.3e+06 M⁻¹ s⁻¹.

B2: 07F01 (antibody, mouse IgG1, kappa, V domains shown)
VH: EVKLLESGGGLVQPGGSLKLSCAASGFDFSRHWMSWVRLAPGKGLEWIAEINPDSRTINYTPSLKEKFIISRDNAKNSLFLQMNRVRSEDTALYYCARRVRIHYYGAMDCWGQGTSVTVSS
VL: DIVLTQSQKIVSTSVGARVSVTCKASQNVGSSLVWYQQKPGQSPKTLIYSASFRYSGVPDRFTGSGSGTDFTLTISNVQSEDLADYFCQQYNNYPLTFGAGTKLELKR
notes: Murine hybridoma monoclonal, IgG1/kappa; also called mu07F01; antibody 07F01
Regarding B2, the Kd in test [1] is 0.032 nM. Also, in test [2], the Kd was 0.21 nM, the koff came to 0.00035 s⁻¹ and the association rate constant (kon) was 2.1e+06 M⁻¹ s⁻¹.
